The source of these data is article PMC2330239 (Nucleic Acids Research, 2008).

The labels stand for the following.
T1: GST fusion protein of the NCoA-1 PAS-B domain, hNCoA-1 (260–370) (human, UniProt Q15788 260-370)
T1 sequence: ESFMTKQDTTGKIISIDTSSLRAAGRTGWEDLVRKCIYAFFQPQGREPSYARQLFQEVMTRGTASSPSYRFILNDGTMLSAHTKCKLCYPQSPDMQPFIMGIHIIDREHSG

T2: NCoA-1 PAS-B domain fragment 257–385 (human, UniProt Q15788 257-385)
T2 sequence: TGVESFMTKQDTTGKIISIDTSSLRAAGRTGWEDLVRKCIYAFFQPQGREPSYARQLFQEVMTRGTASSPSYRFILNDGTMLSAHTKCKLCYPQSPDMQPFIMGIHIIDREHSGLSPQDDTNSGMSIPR

The target in one test is T1, GST fusion protein of the NCoA-1 PAS-B …. The test is described as follows: pull-down.
EGRNDEKALLEQLVSFLSGKD [peptide representing LXXLL motif 5 of human NCoA-1]: the binding result was “binds”.
Regarding LLPPTEQDLTKLLLEGQGESG [human STAT6 motif peptide, STAT6 (794–814)], the binding result is listed as “binds”.
Turning to EDQCISSQLDELLCPPTTVEG [peptide representing LXXLL motif 4 of human NCoA-1], the binding result is “binds”.

A further test has as its target T2, NCoA-1 PAS-B domain fragment 257–385. Nature of the test: NMR titration.
EGRNDEKALLEQLVSFLSGKD [peptide representing LXXLL motif 5 of human NCoA-1]: the binding result is listed as “binds”.
Consider LLPPTEQDLTKLLLEGQGESG [human STAT6 motif peptide, STAT6 (794–814)], for which the binding result is given as “binds”.
Still for that read-out and setting: the result for EDQCISSQLDELLCPPTTVEG [peptide representing LXXLL motif 4 of human NCoA-1] reads “binds”.
